Molecular target: T1, VSV Gth, soluble form of the ectodomain of VSV glycoprotein G (residues 1-422) (Vesicular stomatitis virus (Mudd-Summer …, UniProt P0C2X0 17-438))
T1 chain: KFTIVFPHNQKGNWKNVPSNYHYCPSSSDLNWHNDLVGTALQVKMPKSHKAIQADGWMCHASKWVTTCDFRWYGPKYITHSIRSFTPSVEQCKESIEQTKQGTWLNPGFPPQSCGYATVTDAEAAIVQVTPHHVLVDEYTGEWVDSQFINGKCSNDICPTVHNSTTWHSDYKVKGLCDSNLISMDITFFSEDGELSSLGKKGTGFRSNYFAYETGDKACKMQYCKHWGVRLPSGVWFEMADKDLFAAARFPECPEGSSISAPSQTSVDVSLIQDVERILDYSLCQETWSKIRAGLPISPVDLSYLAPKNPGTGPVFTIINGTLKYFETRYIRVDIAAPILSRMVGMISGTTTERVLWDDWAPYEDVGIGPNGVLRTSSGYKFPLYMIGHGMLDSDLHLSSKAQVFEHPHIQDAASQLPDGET
Assay: ITC

B1: LDL-R CR3 domain, isolated (GST cleaved off) (domain or fragment)
chain: not shown
  Kd: 3.75 µM
